According to patent publication US20180134765A1:

Target: human NKG2D (Example 6 binding ELISA) (human) (UniProt P26718)
Test: binding ELISA of the HER2 antibody heavy chain fusion on human NKG2D

human NKG2D (Example 6 binding ELISA) (human), sequence (P26718 78-216 limits assumed): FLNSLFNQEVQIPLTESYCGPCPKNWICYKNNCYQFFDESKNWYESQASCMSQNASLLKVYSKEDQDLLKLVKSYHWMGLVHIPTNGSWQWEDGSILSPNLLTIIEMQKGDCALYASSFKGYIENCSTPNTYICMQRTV

| EC50 (read off the curve) [nM] | Binder |
| --- | --- |
| 0.4 | Her2-specific antibody heavy chain fusion to ULBP3 α1-α2 variant R162G (antibody, part only; not given: Anti-HER2 heavy and light chains, not shown: another chain or arm of the molecule; small tags and cut ends) AAEPHSLWYNFTIIHLPRHGQQWCEVQSQVDQKNFLSYDCGSDKVLSMGHLEEQLYATDAWGKQLEMLREVGQRLRLELADTELEDFTPSGPLTLQVRMSCESEADGYIRGSWQFSFDGRKFLLFDSNNRKWTVVHAGARRMKEKWEKDSGLTTFFKMVSMGDCKSWLRDFLMHRKKRLEPTAP |
| 1 to 2 | Her2-specific antibody heavy chain fusion to ULBP2 α1-α2 variant R80W (antibody, part only; not given: Anti-HER2 heavy and light chains, not shown: another chain or arm of the molecule; small tags and cut ends) AAEPHSLSYDITVIPKFRPGPRWCAVQGQVDEKTFLHYDCGNKTVTPVSPLGKKLNVTTAWKAQNPVLREVVDILTEQLWDIQLENYTPKEPLTLQARMSCEQKAEGHSSGSWQFSFDGQIFLLFDSEKRMWTTVHPGARKMKEKWENDKVVAMSFHYFSMGDCIGWLEDFLMGMDSTLEPSAGAP |
